From patent publication US20210275644A1 (OCTAPHARMA, published 2021)
Where no end group is shown, it is not given here.

Legend:
[1] = molecular target: T1, Seq11 (recombinant vWF fragment AA 1-505 of SEQ ID NO: 1 with C-terminal Strep-Tag, from HEK 293) (human, UniProt P04275 764-1268, four O-glycosylation sites 485, 492, 493, 500 occupied (core 1, core 2 and/or extended core 1, sialylated)); assay: SIGLEC ELISA with Scatchard analysis (GraphPad Prism); no unit beside the number, concentration axis in µM [panel SIGLEC 9]
T1 construct: Expressed in HEK293 / MEXi-293 cells, purified on Strep-Tactin; not shown: C-terminal Twin-Strep-tag of the pDSG vector (IBA)

[2] = molecular target: T1, Seq11 (recombinant vWF fragment AA …); assay: SIGLEC ELISA, Scatchard analysis of the binding curve (apparent KD)
[3] = molecular target: T2, vWF C-terminal fragment (V8 protease digest of plasma derived vWF) (human, UniProt P04275 2129-2813, biotinylated with EZ-Link Sulfo-NHS-Biotin); assay: ELISA: SIGLEC-Fc captured on a protein A plate (500 ng/well), biotinylated vWF fragment at 1 µg/mL, streptavidin-HRP, A492, single concentration
T2 construct: the real molecule is only its C-terminal part; also called C-terminal vWF fragment

[4] = molecular target: T1, Seq11 (recombinant vWF fragment AA …); assay: SIGLEC ELISA with Scatchard analysis (GraphPad Prism); no unit beside the number, concentration axis in µM [panel SIGLEC 7]
[5] = molecular target: T1, Seq11 (recombinant vWF fragment AA …); assay: SIGLEC ELISA with Scatchard analysis (GraphPad Prism); no unit beside the number, concentration axis in µM [panel SIGLEC 5]
[6] = molecular target: T3, Recombinant SIG-10 Fc-fusion protein (R&D Systems) (human, UniProt Q96LC7 17-546, limits assumed); assay: ELISA: SIGLEC-Fc captured on a protein A plate (500 ng/well), biotinylated cluster fragment at 4 µg/mL, streptavidin-HRP, A492, single concentration
T3 construct: Bought from R&D Systems; Held on the plate by protein A; not shown: Fc part of the bought fusion protein
T3 sequence (looked up): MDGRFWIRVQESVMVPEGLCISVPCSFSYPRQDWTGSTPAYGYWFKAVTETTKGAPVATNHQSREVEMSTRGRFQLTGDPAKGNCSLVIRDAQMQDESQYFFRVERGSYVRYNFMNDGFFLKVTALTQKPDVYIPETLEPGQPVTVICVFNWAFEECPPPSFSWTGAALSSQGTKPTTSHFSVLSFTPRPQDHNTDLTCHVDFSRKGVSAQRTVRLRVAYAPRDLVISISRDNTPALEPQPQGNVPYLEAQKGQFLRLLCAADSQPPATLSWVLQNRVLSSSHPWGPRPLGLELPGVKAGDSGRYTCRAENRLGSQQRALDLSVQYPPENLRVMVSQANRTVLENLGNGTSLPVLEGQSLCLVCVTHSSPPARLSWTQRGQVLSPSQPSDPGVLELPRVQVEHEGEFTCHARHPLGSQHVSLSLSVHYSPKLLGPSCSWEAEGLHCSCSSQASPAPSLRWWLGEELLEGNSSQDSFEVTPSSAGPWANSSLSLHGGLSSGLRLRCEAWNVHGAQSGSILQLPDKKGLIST

T2 sequence (P04275 2129-2813 limits assumed): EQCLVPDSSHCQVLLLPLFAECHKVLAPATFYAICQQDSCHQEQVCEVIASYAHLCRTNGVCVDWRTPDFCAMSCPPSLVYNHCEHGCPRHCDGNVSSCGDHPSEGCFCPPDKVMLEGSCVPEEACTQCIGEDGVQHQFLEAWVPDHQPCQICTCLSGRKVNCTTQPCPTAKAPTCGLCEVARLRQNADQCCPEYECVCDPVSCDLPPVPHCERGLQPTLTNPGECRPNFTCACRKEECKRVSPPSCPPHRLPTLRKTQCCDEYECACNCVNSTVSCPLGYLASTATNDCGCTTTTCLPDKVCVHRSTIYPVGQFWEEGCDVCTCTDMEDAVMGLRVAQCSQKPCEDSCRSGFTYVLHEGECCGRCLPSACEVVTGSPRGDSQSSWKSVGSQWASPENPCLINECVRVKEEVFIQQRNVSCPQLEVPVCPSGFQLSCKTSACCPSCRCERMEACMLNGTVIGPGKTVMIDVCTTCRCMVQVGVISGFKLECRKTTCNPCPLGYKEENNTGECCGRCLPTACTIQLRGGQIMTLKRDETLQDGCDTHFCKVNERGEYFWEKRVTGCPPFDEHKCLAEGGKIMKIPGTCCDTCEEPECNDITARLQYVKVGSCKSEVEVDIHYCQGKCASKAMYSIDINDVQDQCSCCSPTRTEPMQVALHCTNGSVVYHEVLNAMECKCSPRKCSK
T1 sequence (P04275 764-1268): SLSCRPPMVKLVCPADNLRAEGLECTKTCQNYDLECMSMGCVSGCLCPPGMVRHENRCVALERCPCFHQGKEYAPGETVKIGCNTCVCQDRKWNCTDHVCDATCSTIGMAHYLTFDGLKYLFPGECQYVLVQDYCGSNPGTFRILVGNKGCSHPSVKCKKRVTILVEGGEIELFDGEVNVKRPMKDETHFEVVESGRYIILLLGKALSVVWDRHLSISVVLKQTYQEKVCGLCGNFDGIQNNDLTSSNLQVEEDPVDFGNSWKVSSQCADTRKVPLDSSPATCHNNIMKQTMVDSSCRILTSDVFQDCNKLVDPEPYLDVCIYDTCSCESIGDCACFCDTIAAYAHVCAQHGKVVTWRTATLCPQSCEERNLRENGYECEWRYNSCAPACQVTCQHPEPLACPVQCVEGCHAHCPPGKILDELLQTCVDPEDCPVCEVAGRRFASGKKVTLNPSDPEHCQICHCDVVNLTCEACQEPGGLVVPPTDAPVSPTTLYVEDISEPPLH

B1: Recombinant SIG-9 Fc-fusion protein (R&D Systems) (Fc fusion)
chain: QTSKLLTMQSSVTVQEGLCVHVPCSFSYPSHGWIYPGPVVHGYWFREGANTDQDAPVATNNPARAVWEETRDRFHLLGDPHTKNCTLSIRDARRSDAGRYFFRMEKGSIKWNYKHHRLSVNVTALTHRPNILIPGTLESGCPQNLTCSVPWACEQGTPPMISWIGTSVSPLDPSTTRSSVLTLIPQPQDHGTSLTCQVTFPGASVTTNKTVHLNVSYPPQNLTMTVFQGDGTVSTVLGNGSSLSLPEGQSLRLVCAVDAVDSNPPARLSLSWRGLTLCPSQPSNPGVLELPWVHLRDAAEFTCRAQNPLGSQQVYLNVSLQSKATSGVTQG
notes: Bought from R&D Systems; Held on the plate by protein A; also called SIGLEC 9; not shown: Fc part of the bought fusion protein
Kd [1]: 591 nM
Kd [2]: 591 nM
binding result [3]: no binding (tested: 1 µg/mL)

B2: Recombinant SIG-7 Fc-fusion protein (R&D Systems) (Fc fusion)
chain: QKSNRKDYSLTMQSSVTVQEGMCVHVRCSFSYPVDSQTDSDPVHGYWFRAGNDISWKAPVATNNPAWAVQEETRDRFHLLGDPQTKNCTLSIRDARMSDAGRYFFRMEKGNIKWNYKYDQLSVNVTALTHRPNILIPGTLESGCFQNLTCSVPWACEQGTPPMISWMGTSVSPLHPSTTRSSVLTLIPQPQHHGTSLTCQVTLPGAGVTTNRTIQLNVSYPPQNLTVTVFQGEGTASTALGNSSSLSVLEGQSLRLVCAVDSNPPARLSWTWRSLTLYPSQPSNPLVLELQVHLGDEGEFTCRAQNSLGSQHVSLNLSLQQEYTGKMRPVSGVLLGAVG
notes: Bought from R&D Systems; Held on the plate by protein A; also called SIGLEC 7; not shown: Fc part of the bought fusion protein
Kd [4]: 371 nM
Kd [2]: 371 nM
binding result [3]: no binding (tested: 1 µg/mL)

B3: Recombinant SIG-5 Fc-fusion protein (R&D Systems) (Fc fusion)
chain: EKPVYELQVQKSVTVQEGLCVLVPCSFSYPWRSWYSSPPLYVYWFRDGEIPYYAEVVATNNPDRRVKPETQGRFRLLGDVQKKNCSLSIGDARMEDTGSYFFRVERGRDVKYSYQQNKLNLEVTALIEKPDIHFLEPLESGRPTRLSCSLPGSCEAGPPLTFSWTGNALSPLDPETTRSSELTLTPRPEDHGTNLTCQMKRQGAQVTTERTVQLNVSYAPQTITIFRNGIALEILQNTSYLPVLEGQALRLLCDAPSNPPAHLSWFQGSPALNATPISNTGILELRRVRSAEEGGFTCRAQHPLGFLQIFLNLSVYSLPQLLGPSCSWEAEGLHCRCSFRARPAPSLCWRLEEKPLEGNSSQGSFKVNSSSAGPWANSSLILHGGLSSDLKVSCKAWNIYGSQSGSVLLLQGRSNLGT
notes: Bought from R&D Systems; Held on the plate by protein A; also called SIGLEC 5; not shown: Fc part of the bought fusion protein
Kd [5]: 494 nM
Kd [2]: 494 nM
binding result [3]: no binding (tested: 1 µg/mL)

B4: Cluster 2 fragment (tryptic glycopeptide of plasma derived vWF, AA 674 to 728/729) (peptide)
peptide: AFVLSSVDELEQQRDEIVSYLC(Maleimide‑PEG2‑Biotin)DLAPEAPPPTLPPDMAQVTVGPGLLGVSTLGPKR
modifications: also: natural O-glycans (sialylated core 2), sites not given here
notes: also called Cluster II; O-glycosylation Cluster II
binding result [6]: no binding (tested: 4 µg/mL)
